Numbering of substitutions follows the chain as printed.
T1: Nectin-4 Mutant 8 (T190A/T191Q/S193A) (Homo sapiens, UniProt Q96NY8, S193A/T190A/T191Q)
T1 construct: expressed in transfected cells; host or cells: HEK293T
T1 sequence (Q96NY8 32-510 T190A/T191Q/S193A): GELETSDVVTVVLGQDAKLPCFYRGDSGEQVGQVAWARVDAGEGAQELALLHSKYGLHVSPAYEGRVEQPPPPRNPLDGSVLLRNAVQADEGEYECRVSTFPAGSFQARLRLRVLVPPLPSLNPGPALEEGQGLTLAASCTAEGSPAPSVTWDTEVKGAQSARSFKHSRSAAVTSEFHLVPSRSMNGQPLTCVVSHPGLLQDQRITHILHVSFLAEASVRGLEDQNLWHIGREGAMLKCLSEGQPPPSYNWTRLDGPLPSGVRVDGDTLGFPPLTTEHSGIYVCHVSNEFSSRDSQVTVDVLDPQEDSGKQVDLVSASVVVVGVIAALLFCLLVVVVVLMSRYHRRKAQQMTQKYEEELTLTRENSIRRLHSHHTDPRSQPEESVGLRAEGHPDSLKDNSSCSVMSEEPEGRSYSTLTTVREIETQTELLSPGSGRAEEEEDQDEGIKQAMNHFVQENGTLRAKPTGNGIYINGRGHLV

T2: Nectin-4 Mutant 9 (L150S/S152A/Q234R/I236S) (Homo sapiens, UniProt Q96NY8, I236S/L150S/Q234R/S152A)
T2 construct: expressed in transfected cells; host or cells: HEK293T
T2 sequence (Q96NY8 32-510 L150S/S152A/Q234R/I236S): T1 sequence (Q96NY8 32-510 T190A/T191Q/S193A) with L119S, S121A, A159T, Q160T, A162S, Q203R, I205S

T3: Nectin-4 Mutant 4 (A72P/G73N/G75S) (Homo sapiens, UniProt Q96NY8, A72P/G73N/G75S)
T3 construct: expressed in transfected cells; host or cells: HEK293T
T3 sequence (Q96NY8 32-510 A72P/G73N/G75S): T1 sequence (Q96NY8 32-510 T190A/T191Q/S193A) with A41P, G42N, G44S, A159T, Q160T, A162S

T4: Nectin-4 Mutant 7 (S195A/K197T/S199A) (Homo sapiens, UniProt Q96NY8, K197T/S195A/S199A)
T4 construct: expressed in transfected cells; host or cells: HEK293T
T4 sequence (Q96NY8 32-510 S195A/K197T/S199A): T1 sequence (Q96NY8 32-510 T190A/T191Q/S193A) with A159T, Q160T, A162S, S164A, K166T, S168A

B1: 5E7 (antibody, V domains shown)
VH: QVQLQQPGAELVKPGASVKLSCKASGYIFTSYWMHWVKQRPGQGLEWIGEIDPSDSYTNYNQKFKGKATLTLDKSSSTTYMQLSSLTSEDSAVYYCVRGYGNYGDYWGQGTTLTVSS
VL: DVVMTQAAFSNPVTLGTSASISCRSSKSLLHSNGITYLYWYLQKPGQSPQLLIYQMSNLASGVPDRFSSSGSGTDFTLRISRVEAEDVGVYYCAQNLELPWTFGGGTKLEIK
B2: 10B12: anti-Nectin-4 antibody, VH SEQ ID NO: 24, VL SEQ ID NO: 25, binds junction of domain C1 and V (antibody, listed as Mus musculus, V domains shown)
VH: B1 VH with I28T, L72V, T79A
VL: B1 VL with V2I
B3: N41 (antibody, V domains shown)
VH: QVQLKQSGPGLVQPSQSLSITCTVSGFSLTNYGVHWVRQSPGKGLEWLGVIWSGGSTDYNAAFISRLSISKDTSKSQVFFKMNSLQADDTAIYYCARELIHAMDNWGQGTSVTVSS
VL: DIQMTQSPASLSVSVGETVTITCRASENIYSNLAWYQQKQGNSPQLLVFAATNLADGVPSRFSGSGSGTQYSLKINSLQSEDFGTYYCQHFWGTPTFGGGTKLEIK

What was measured:
Experiment in all cases: Binding to cell surface expressed Nectin-4 point mutant
Conditions in all cases: HEK-293T
[1] = target: T1, Nectin-4 Mutant 8 (T190A/T191Q/S193A)
Text: (§1) Combined with the published structures of the Nectin-4 domains, Nectin-4 mutations at surface exposed amino acids residues were designed. Nectin-4 domain structure was modelled based on Protein Data Bank reference: 4FRW (domains V et C1). Human Nectin-4 used was NCBI Reference Sequence: NP_112178.2, mouse Nectin-4 used was NCBI Reference Sequence: AAL79833.1, cynomolgus Nectin-4 used was NCBI Reference Sequence: XP_005541277.1, rat Nectin-4 used was NCBI Reference Sequence: NP_001102546.1. The cells expressing the Nectin-4 mutants are then be used for testing anti-Nectin-4 antibodies for loss of binding to different Nectin-4 mutants to identify antibodies that bind to the same site on Nectin-4. […] FIGS. 12A and 12B show a molecular model of the human Nectin-4 protein, indicating the position of substituted residues in mutants 7 (12A) and in mutants 7bis (12B); these mutants are in the C1 domain identify two sites at the junction of domain C1 and V domain that are on opposing faces of the Nectin-4 protein.
(§2) Nectin-4 mutants were generated by PCR. The sequences amplified were run on agarose gel and purified using the Macherey Nagel PCR Clean-Up Gel Extraction kit. The purified PCR products generated for each mutant were then ligated into an expression vector, with the ClonTech InFusion system. The vectors containing the mutated sequences were prepared as Miniprep and sequenced. After sequencing, the vectors containing the mutated sequences were prepared as Midiprep using the Promega PureYield™ Plasmid Midiprep System. HEK293T cells were grown in DMEM medium (Invitrogen), transfected with vectors using Invitrogen's Lipofectamine 2000 and incubated at 37° C. in a CO2 incubator for 48 hours prior to testing for transgene expression. The targeted amino acid mutations are shown in Table 2 below, listing the residue present in wild-type Nectin-4/position of residue/residue present in mutant Nectin-4, with position reference being to the Nectin-4 protein with leader peptide shown in SEQ ID NO: 1.

[2] = target: T2, Nectin-4 Mutant 9 (L150S/S152A/Q234R/I236S)
Text: as §1, §2

[3] = target: T3, Nectin-4 Mutant 4 (A72P/G73N/G75S)
Text: as §1, §2

[4] = target: T4, Nectin-4 Mutant 7 (S195A/K197T/S199A)
Text: as §1, §2

Molecule | association with Nectin-4 Mutant 8 [1] | association with Nectin-4 Mutant 9 [2] | association with Nectin-4 Mutant 4 [3] | association with Nectin-4 Mutant 7 [4]
B1 | + | + | + | −
B2 | + | + | + | −
B3 | + | + | + | +

Source: US20240325557A1, “TREATMENT OF CANCER” (INNATE PHARMA, priority 2020, published 2024)
